Results on one molecule are retold here after publication PMC7917804.

This test has as its target poly(A)-binding protein (PABP), P11940. The experiment in a line: co-immunoprecipitation with anti-FLAG antibody, Western blot quantified with ImageJ. To be noted: chain shown with the change; HeLa cells; two independent experiments; parent: est. 1.0; read off a plot. (A western blot detects proteins with antibodies after separation by electrophoresis.)

Sequence of poly(A)-binding protein (PABP), P11940 (P11940 whole entry): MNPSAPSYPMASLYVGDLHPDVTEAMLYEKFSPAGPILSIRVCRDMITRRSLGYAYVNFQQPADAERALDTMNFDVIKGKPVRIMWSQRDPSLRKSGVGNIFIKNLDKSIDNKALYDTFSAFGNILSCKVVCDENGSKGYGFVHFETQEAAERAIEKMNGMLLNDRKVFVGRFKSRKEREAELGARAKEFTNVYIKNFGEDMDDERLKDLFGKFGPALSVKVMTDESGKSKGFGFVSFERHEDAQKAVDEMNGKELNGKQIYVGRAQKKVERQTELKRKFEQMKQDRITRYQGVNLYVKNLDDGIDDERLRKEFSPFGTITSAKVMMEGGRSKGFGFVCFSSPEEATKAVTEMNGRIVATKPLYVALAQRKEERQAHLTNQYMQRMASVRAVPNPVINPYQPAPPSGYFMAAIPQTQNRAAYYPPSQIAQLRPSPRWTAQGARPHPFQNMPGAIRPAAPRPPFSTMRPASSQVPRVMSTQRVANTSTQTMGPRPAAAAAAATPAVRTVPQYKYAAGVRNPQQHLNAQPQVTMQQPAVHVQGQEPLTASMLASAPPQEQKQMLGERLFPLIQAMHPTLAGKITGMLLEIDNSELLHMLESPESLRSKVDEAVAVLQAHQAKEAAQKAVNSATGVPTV

B1: FLAG-HA-SBP (FHS)-tagged full-length TNRC6A, wild type, Q8NDV7-2 S1332D; S1346D (protein)
chain: MDADSASSSESERNITIMASGNTGGEKDGLRNSTGLGSQNKFVVGSSSNNVGHGSSTGPWGFSHGAIISTCQVSVDAPESKSESSNNRMNAWGTVSSSSNGGLNPSTLNSASNHGAWPVLENNGLALKGPVGSGSSGINIQCSTIGQMPNNQSINSKVSGGSTHGTWGSLQETCESEVSGTQKVSFSGQPQNITTEMTGPNNTTNFMTSSLPNSGSVQNNELPSSNTGAWRVSTMNHPQMQAPSGMNGTSLSHLSNGESKSGGSYGTTWGAYGSNYSGDKCSGPNGQANGDTVNATLMQPGVNGPMGTNFQVNTNKGGGVWESGAANSQSTSWGSGNGANSGGSRRGWGTPAQNTGTNLPSVEWNKLPSNQHSNDSANGNGKTFTNGWKSTEEEDQGSATSQTNEQSSVWAKTGGTVESDGSTESTGRLEEKGTGESQSRDRRKIDQHTLLQSIVNRTDLDPRVLSNSGWGQTPIKQNTAWDTETSPRGERKTDNGTEAWGSSATQTFNSGACIDKTSPNGNDTSSVSGWGDPKPALRWGDSKGSNCQGGWEDDSAATGMVKSNQWGNCKEEKAAWNDSQKNKQGWGDGQKSSQGWSVSASDNWGETSRNNHWGEANKKSSSGGSDSDRSVSGWNELGKTSSFTWGNNINPNNSSGWDESSKPTPSQGWGDPPKSNQSLGWGDSSKPVSSPDWNKQQDIVGSWGIPPATGKPPGTGWLGGPIPAPAKEEEPTGWEEPSPESIRRKMEIDDGTSAWGDPSKYNYKNVNMWNKNVPNGNSRSDQQAQVHQLLTPASAISNKEASSGSGWGEPWGEPSTPATTVDNGTSAWGKPIDSGPSWGEPIAAASSTSTWGSSSVGPQALSKSGPKSMQDGWCGDDMPLPGNRPTGWEEEEDVEIGMWNSNSSQELNSSLNWPPYTKKMSSKGLSGKKRRRERGMMKGGNKQEEAWINPFVKQFSNISFSRDSPEENVQSNKMDLSGGMLQDKRMEIDKHSLNIGDYNRTVGKGPGSRPQISKESSMERNPYFDKDGIVADESQNMQFMSSQSMKLPPSNSALPNQALGSIAGLGMQNLNSVRQNGNPSMFGVGNTAAQPRGMQQPPAQPLSSSQPNLRAQVPPPLLSPQVPVSLLKYAPNNGGLNPLFGPQQVAMLNQLSQLNQLSQISQLQRLLAQQQRAQSQRSVPSGNRPQQDQQGRPLSVQQQMMQQSRQLDPNLLVKQQTPPSQQQPLHQPAMKSFLDNVMPHTTPELQKGPSPINAFSNFPIGLNSNLNVNMDMNSIKEPQSRLRKWTTVDSISVNTSLDQNSSKHGAISSGFRLEESPFVPYDFMNSSTSPADPPGSIGDGWPRAKDPNGSSSVNWPPEFRPGEPWKGYPNIDPETDPYVTPGSVINNLSINTVREVDHLRDRNSGSSSSLNTTLPSTSAWSSIRASNYNVPLSSTAQSTSARNSDSKLTWSPGSVTNTSLAHELWKVPLPPKNITAPSRPPPGLTGQKPPLSTWDNSPLRIGGGWGNSDARYTPGSSWGESSSGRITNWLVLKNLTPQIDGSTLRTLCMQHGPLITFHLNLPHGNALVRYSSKEEVVKAQKSLHMCVLGNTTILAEFASEEEISRFFAQSQSLTPSPGWQSLGSSQSRLGSLDCSHSFSSRTDLNHWNGAGLSGTNCGDLHGTSLWGTPHYSTSLWGPPSSSDPRGISSPSPINAFLSVDHLGGGGESM
Take B1: the response amounted to 1.4.
